Source: patent US20220168345A1 (published 2022)

Target: T1, NY-ESO-1 peptide on HLA-B*07:02 (human)
T1 peptide: APRGPHGGAASGL
Assay: multimer staining
From the text: FIGS. 3A-3I are graphical representations of positive staining of Jurkat 76/CD8 cells transduced with B*07:02/NY-ESO-1₆₀₋₇₂ TCR genes with a cognate multimer. Jurkat 76/CD8 cells transduced with the B*07:02/NY-ESO-1₆₀₋₇₂ TCR (FIGS. 3B, 3E, and 3H) were stained with the B*07:02/NY-ESO-1₆₀₋₇₂ multimer (FIG. 3B). The B*07:02/MAGE-A1₂₈₉₋₂₉₇ multimer (FIGS. 3D, 3E, and 3F), B*07:02/unexchanged multimer (FIGS. 3G, 3H, and 3I), and B*07:02/MAGE-A1₂₈₉₋₂₉₇ TCR (FIGS. 3C, 3F, and 3I) were employed as controls, as well as Jurkat 76/CD8 not transduced with a TCR (FIGS. 3A, 3D, and 3G). The percentage of multimer⁺ CD8⁺ cells is shown.
T cells (1×10⁵) were incubated for 30 minutes at 37° C. in the presence of 50 nM dasatinib (LC laboratories). The cells were then washed and incubated with 5-10 μg/ml of multimer for 30 minutes at room temperature, and R-phycoerythrin-conjugated AffiniPure Fab fragment goat anti-mouse IgG1 (Jackson ImmunoResearch Laboratories) was added for 15 minutes at 4° C. Next, the cells were washed three times and costained with an anti-CD8 mAb for 15 minutes at 4° C. Dead cells were finally discriminated using the LIVE/DEAD Fixable Dead Cell Stain kit.

binding result: recognises
B1: B*07:02/NY-ESO-1 60-72 TCR (TCR, V domains shown)
Valpha: AQSVTQLDSHVSVSEGTPVLLRCNYSSSYSPSLFWYVQHPNKGLQLLLKYTSAATLVKGINGFEAEFKKSETSFHLTKPSAHMSDAAEYFCVVSFSGNTPLVFGKGTRLSVIA
Vbeta: DTGVSQDPRHKITKRGQNVTFRCDPISEHNRLYWYRQTLGQGPEFLTYFQNEAQLEKSRLLSDRFSAERPKGSFSTLEIQRTEQGDSAMYLCASSSSYSNQPQHFGDGTRLSIL
